Laboratory results reported in US11414648B2, “Methods and compositions for production of fallopian tube epithelium” (CEDARS-SINAI MEDICAL CENTER, priority 2017, dated 2022).

Legend:
Assay type in all cases: cell-based
[1] = test system: human iPSCs; experiment: Differentiation of human iPSCs into mesoderm (qPCR/immunocytochemistry of MIXL1, BRACHYURY); settings: 100 ng/ml activin A and 3 μM CHIR99021 used together; iPSC line 87iCTR-n3; peak at day 2
Protocol: Human iPSCs were split onto Matrigel-coated plates, and cultured in mTeSR®1 medium until 80% confluent. Three intermediate protocols were compared, according to Mae et al. (2013), Xia et al. (2013), and Takasato et al. (2014). […]
Total cellular RNA was isolated using Qiagen RNeasy Mini kit according to the manufacturer's recommendations (Qiagen). Of RNeasy-treated total RNA (1 μg) was used for cDNA synthesis using the Quantitect Reverse Transcription Kit for cDNA synthesis for PCR (Qiagen). […]

[2] = test system: intermediate mesoderm (IM) cells derived from human iPSCs; experiment: Differentiation of intermediate mesoderm into Müllerian duct / FTE precursor vs nephric duct (marker expression); settings: for expression of kidney markers SIX2 and FOXD1: qPCR, relative to iPSC day 0, 87iCTR-n3
Protocol: (§1) Human iPSCs were split onto Matrigel-coated plates, and cultured in mTeSR®1 medium until 80% confluent. Three intermediate protocols were compared, according to Mae et al. (2013), Xia et al. (2013), and Takasato et al. (2014). The final protocol that achieved best efficiency and results for creating fallopian tube epithelium was a modified Mae et. al., (2013) protocol, as defined below. • Day 0-2: Cells were exposed to 100 ng/ml human recombinant activin A (Stemgent) and 3 μM CHIR99021 (Cayman Chemicals) to differentiate towards mesoderm, and cultured in DMEM/F12 (Gibco)+Glutamax (Invitrogen) supplemented with 500 U/ml penicillin streptomycin (Gibco) and 2% fetal bovine serum (FBS) with addition of 10 μM ROCK inhibitor Y-27632 (Stemgent). • Day 2-4: To differentiate towards IM, media was changed to DMEM/F12 (Gibco)+Glutamax (Invitrogen) supplemented with 0.1 mM non-essential amino acids (Invitrogen), 500 u/ml penicillin/streptomycin (Gibco), 0.55 mM 2-mercaptoethanol, 10% KOSR (Invitrogen), 100 ng/ml BMP4 (R&D Systems), 3 μM CHIR99021 (Cayman Chemicals), and 10 μM ROCK inhibitor Y-27632 (Stemgent). • Day 4-6: Spheroids were collected from wells and re-plated per methods described below. To differentiate the spheroid cultures towards Müllerian epithelium, media was changed to Fallopian tube media (FTM) containing DMEM/F12 (Gibco)+500 u/ml penicillin/streptomycin (Gibco), and 10 ml reconstituted Ultroser G (15950-017, Pall) and 10 μM ROCK inhibitor Y-27632 (Stemgent). To the FTM, 100 ng/ml human recombinant WNT4 (R&D Systems) with or without 3 μM CHIR99021(Cayman Chemicals), 100 ng/ml human recombinant WNT3A (R&D Systems) with or without 3 μM CHIR99021 (Cayman Chemicals) were added. • Day 6-8: FTM was changed and 20 ng/ml human recombinant Follistatin (Peprotech), 1 ng/ml estrogen and 33 ng/ml progestrone were added.
(§2) Total cellular RNA was isolated using Qiagen RNeasy Mini kit according to the manufacturer's recommendations (Qiagen). Of RNeasy-treated total RNA (1 μg) was used for cDNA synthesis using the Quantitect Reverse Transcription Kit for cDNA synthesis for PCR (Qiagen). Real-time PCR was performed using the SYBR Green Supermix (BioRad). The levels of expression of respective genes were normalized to corresponding GAPDH values and are shown as fold change relative to the value of the control sample. All sample analyses were carried out in triplicate.
(§3) Monolayer cultures were grown on poly-1-lysine and ornithine coated glass coverslips. Cells were washed once with phosphate buffered saline (PBS) and fixed with 4% paraformaldehyde (PFA) in 1× PBS for 20 minutes and permeabilized in PBS containing 0.5% Triton X-100 (PBS-T) (Sigma) for 5 minutes at room temperature. […]

[3] = test system: human iPSCs; experiment: Differentiation of mesoderm into intermediate mesoderm (IM) (marker expression); settings: for transient upregulation of BRACHYURY and MIXL1 seen during gastrulation: BMP4 vs BMP7 treatment, 87iCTR-n3 iPSC line
Protocol: as §1, §2, §3

Molecule	mesoderm induction (MIXL1 and BRACHYURY) [1]	expression of kidney markers SIX2 and FOXD1 [2]	transient upregulation of BRACHYURY and MIXL1 seen during gastrulation [3]	other results
Cc1c[nH]c(-c2cnc(NCCNc3ccc(C#N)cn3)nc2-c2ccc(Cl)cc2Cl)n1 [CHIR99021, reference compound]	rapidly and efficiently specified human iPSCs (line 87iCTR-n3) into mesoderm			
WNT3A: human recombinant WNT3A (R&D Systems) (protein, UniProt P56704 19-352, looked up) Protein Wnt-3a: SYPIWWSLAVGPQYSSLGSQPILCASIPGLVPKQLRFCRNYVEIMPSVAEGIKIGIQECQHQFRGRRWNCTTVHDSLAIFGPVLDKATRESAFVHAIASAGVAFAVTRSCAEGTAAICGCSSRHQGSPGKGWKWGGCSEDIEFGGMVSREFADARENRPDARSAMNRHNNEAGRQAIASHMHLKCKCHGLSGSCEVKTCWWSQPDFRAIGDFLKDKYDSASEMVVEKHRESRGWVETLRPRYTYFKVPTERDLVYYEASPNFCEPNPETGSFGTRDRTCNVSSHGIDGCDLLCCGRGHNARAERRREKCRCVFHWCCYVSCQECTRVYDVHTCK		increased expression		decreased levels of WT1 and OVGP1 compared to WNT4 treatment ([2]; WNT3A treatment (nephric duct differentiation) vs WNT4): ~10 fold
BMP7: Bone Morphogenetic Protein used in the Mae et al (2013) protocol (protein, UniProt P18075 293-431, looked up) Bone morphogenetic protein 7: STGSKQRSQNRSKTPKNQEALRMANVAENSSSDQRQACKKHELYVSFRDLGWQDWIIAPEGYAAYYCEGECAFPLNSYMNATNHAIVQTLVHFINPETVPKPCCAPTQLNAISVLYFDDSSNVILKKYRNMVVRACGCH			not recapitulated	
WNT4: human recombinant WNT4 (R&D Systems) (protein, UniProt P56705 23-351, looked up) Protein Wnt-4: SNWLYLAKLSSVGSISEEETCEKLKGLIQRQVQMCKRNLEVMDSVRRGAQLAIEECQYQFRNRRWNCSTLDSLPVFGKVVTQGTREAAFVYAISSAGVAFAVTRACSSGELEKCGCDRTVHGVSPQGFQWSGCSDNIAYGVAFSQSFVDVRERSKGASSSRALMNLHNNEAGRKAILTHMRVECKCHGVSGSCEVKTCWRAVPPFRQVGHALKEKFDGATEVEPRRVGSSRALVPRNAQFKPHTDEDLVYLEPSPDFCEQDMRSGVLGTRGRTCNKTSKAIDGCELLCCGRGFHTAQVELAERCSCKFHWCCFVKCRQCQRLVELHTCR		lack of expression		expression of fallopian tube precursor (Müllerian duct) markers WT1 and OVGP1 ([2]; qPCR and immunocytochemistry, 100 ng/ml WNT4 on day 4 followed by 20 ng/ml Follistatin on day 6, WNT4/CHIR compared to WNT4 alone): upregulated expression over time
activin A: human recombinant activin A (Stemgent), growth factor (protein, UniProt P08476 311-426, looked up, Inhibin beta A chain activin A homodimer) Inhibin beta A chain: GLECDGKVNICCKKQFFVSFKDIGWNDWIIAPSGYHANYCEGECPSHIAGTSGSSLSFHSTVINHYRMRGHSPFANLKSCCVPTKLRPMSMLYYDDGQNIIKKDIQNMIVEECGCS	rapidly and efficiently specified human iPSCs (line 87iCTR-n3) into mesoderm			
BMP4: BMP4 growth factor (R&D Systems) (protein, UniProt P12644 293-408, looked up) Bone morphogenetic protein 4: SPKHHSQRARKKNKNCRRHSLYVDFSDVGWNDWIVAPPGYQAFYCHGDCPFPLADHLNSTNHAIVQTLVNSVNSSIPKACCVPTELSAISMLYLDEYDKVVLKNYQEMVVEGCGCR			expected transient upregulation	mesoderm differentiation into IM, based on expression of early IM markers PAX2, OSR1 and GATA3 ([3]; 100 ng/ml, day 2-4, compared with BMP7 of Mae et al protocol): optimal mesoderm differentiation into IM; expression of endoderm-marker SOX17 and ectoderm-marker NCAM ([3]; differentiation protocol that included BMP4, 87iCTR-n3): no to very low detectable expression levels
